This assay has as its target human α-thrombin (human). As to the kind of experiment: enzyme inhibition.

With “chimadanin with a single sTyr at Tyr31 (natural protein)”, the Ki was found to be 1.5 nM.

Consider “chimadanin sulfated at both Tyr28 and Tyr31 (natural protein)”, for which the Ki came to 0.1 nM.

Substance “chimadanin with a single sTyr at Tyr28 (natural protein)” came in with a Ki of 0.6 nM.

In the case of “madanin-1 with a single sTyr at Tyr32 (natural protein)”, the Ki came to 1.3 nM.

As for “madanin-1 sulfated at both Tyr32 and Tyr35 (natural protein)”, the inhibition constant (Ki) came to 0.5 nM.

Substance “madanin-1 with a single sTyr at Tyr35 (natural protein)” came in with a Ki of 6.1 nM.

The substance wildtype chimadanin (natural protein) came in with an inhibition constant Ki of 12.9 nM.

wildtype madanin-1 (natural protein) had a Ki of 16 nM.

As a reminder, the Ki is a measure of affinity in units of concentration, obtained from inhibition or displacement. Read a high Ki as weaker binding.

The values are drawn from paper doi:10.1101/2022.03.25.485857.
